Like-named read-outs stand apart in the source and are kept apart here.
How the values were obtained:
[1] = molecular target: Human FcγRIIA 131R (Homo sapiens, FCGR2A 131R allele) (UniProt P12318); experiment: SPR
[2] = molecular target: Human FcγRIIA 131H (Homo sapiens, FCGR2A 131H allele) (UniProt P12318); experiment: SPR
[3] = molecular target: T1, FcγRIIA on human neutrophils (Homo sapiens, endogenous on …, UniProt P12318); experiment: flow cytometry on cells
[4] = molecular target: T1, FcγRIIA on human neutrophils; experiment: flow cytometry on cells; remark: listed apart in the source

Human FcγRIIA 131H (Homo sapiens, FCGR2A 131H allele), sequence (P12318 34-317): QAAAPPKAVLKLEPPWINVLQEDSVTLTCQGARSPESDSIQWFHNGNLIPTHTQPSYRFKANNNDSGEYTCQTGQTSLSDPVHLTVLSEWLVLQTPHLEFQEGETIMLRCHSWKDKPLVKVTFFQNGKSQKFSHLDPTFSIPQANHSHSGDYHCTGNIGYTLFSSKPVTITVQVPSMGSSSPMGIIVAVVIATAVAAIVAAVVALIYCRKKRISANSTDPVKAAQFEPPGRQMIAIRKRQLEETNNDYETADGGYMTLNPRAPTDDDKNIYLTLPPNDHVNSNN
Human FcγRIIA 131R (Homo sapiens, FCGR2A 131R allele), sequence (P12318 whole entry, looked up, tested part not stated): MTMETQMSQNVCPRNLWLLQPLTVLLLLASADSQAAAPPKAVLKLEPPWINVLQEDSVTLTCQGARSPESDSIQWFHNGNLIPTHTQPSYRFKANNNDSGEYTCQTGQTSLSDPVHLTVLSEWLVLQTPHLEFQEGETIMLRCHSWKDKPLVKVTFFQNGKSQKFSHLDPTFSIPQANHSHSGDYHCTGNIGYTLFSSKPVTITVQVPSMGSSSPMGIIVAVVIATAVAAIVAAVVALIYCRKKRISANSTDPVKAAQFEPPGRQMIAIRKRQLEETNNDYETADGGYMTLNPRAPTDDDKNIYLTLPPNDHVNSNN
T1 sequence (P12318 34-317): as the sequence (P12318 34-317) above

| Kd [1] [nM] | koff [1] [s⁻¹] | kon [1] [M⁻¹ s⁻¹] | Kd [2] [nM] | koff [2] [s⁻¹] | kon [2] [M⁻¹ s⁻¹] | EC50 [3] [nM] | EC50 [4] [nM] | Molecule |
| --- | --- | --- | --- | --- | --- | --- | --- | --- |
| 0.22 | 0.00129 | 5.95e+06 | 0.22 | 0.000681 | 3.03e+06 | – | – | IV.3 Fab |
| 0.15 | 0.000735 | 4.98e+06 | 0.13 | 0.000337 | – | – | – | VIB9600 Fab |
| – | – | – | – | – | – | 0.03 | 3.35 | VIB9600, humanised effector-null anti-FcγRIIA antibody (antibody, V domains shown) VH: QVQLVQSGAEVKKPGASVKVSCKASGYTFTNYGMNWVRQAPGQRLEWMGWLNTYTGESWYPDDFKGRVTITRDTSASTAYMELSSLRSEDTAVYYCARGDYGYDDPLDYWGQGTLVTVSS VL: DIVMTQSPLSLPVTPGEPASISCRSSKSLLHTNQNTYLHWFLQKPGQSPQLLIYRMSVLASGVPDRFSGSGSGTDFTLKISRVEAEDVGVYYCMQHLEYPLTFGQGTKLEIK |

Source: PMC6352406 (Annals of the Rheumatic Diseases, 2018)
